Results taken from patent publication US12162911B2, “Pulmonary administration of pyocins for treating bacterial respiratory infections” (priority 2014, dated 2024).
“Also recorded” adds a separate entry of the source.

How the values were obtained:
P. aeruginosa P17 = test: Mouse model of acute lung infection, P. aeruginosa P17; format: in vivo, Pseudomonas aeruginosa
Method: (§1) Model of acute lung infection. Female C57/BL6 mice were inoculated intranasally with 25 μl of bacterial culture containing approximately 10^7 CFU of the selected P. aeruginosa strain^36. Antibiotic treatments were administered at either 6 h pre-infection or 1 h post-infection and were administered only once. Pyocins or tobramycin dissolved in PBS were administered via intranasal administration as described above. Two different end-points were used in these experiments. In order to determine a reduction in the bacterial load of the lungs compared to the untreated controls, all mice in the experiment were culled by carbon dioxide asphyxiation at the same time; 4-6 h post infection. To determine if mice could survive infection after pyocin or tobramycin treatment, mice were monitored closely, culled by carbon dioxide asphyxiation when required as determined by a scoring system or culled at the pre-determined 24 h time point. Uninfected mice, treated with pyocins, were used as controls in the first series of experiments in order to ensure no adverse effects from pyocin treatment. These controls were stopped in later experiments in order to reduce the number of animals used, once it was clear that the pyocins were not harmful. For CFU determination, lungs were removed aseptically and kept on ice in 750 μl of PBS until homogenised. Serial 10-fold dilutions of the homogenised lung were plated on Pseudomonas selective agar (20 g peptone, 1.5 g K2HPO4, 1.5 g MgSO4·7H2O, 10 ml glycerol, 15 g agar, 0.025 g Irgasan per litre) and incubated at 37° C. for 24 h and then room temperature for 24 h before the colonies were counted.
(§2) Since strains of P. aeruginosa are phenotypically diverse, we tested the efficacy of the pyocins against three additional isolates: P. aeruginosa P17 and P. aeruginosa P5 (mucoid), both from cystic fibrosis patients and P. aeruginosa E2, an environmental isolate. Pyocin S2 was not active against P. aeruginosa P5 or P. aeruginosa E2 in vitro therefore was not used to treat these strains in vivo and similarly pyocin L1 was not used against P. aeruginosa P17. […] Lung homogenates from P. aeruginosa E2-infected AP41-treated mice contained high levels of viable bacteria, reduced only 10-fold relative to control mice (Table 1). […] Thus, pyocins show strong efficacy against diverse strains of P. aeruginosa with pyocin S5 treatment displaying the largest effect on reducing bacterial load.

[1] = test system: collection of diverse environmental and clinical isolates; test: Activity against a collection of diverse environmental and clinical isolates; format: cell-based, Pseudomonas aeruginosa
P. aeruginosa P8 [2] = test: Mouse model of acute lung infection, P. aeruginosa P8; format: in vivo, Pseudomonas aeruginosa
Method: Study design. […] For all experiments 6 week-old, female, murine pathogen free C57/BL6 mice weighing 15-21 g were used (Charles Rivers Laboratories, UK). All mice received food and water ad libitum and were housed in groups during the experiments. Power calculations were used to predetermine sample size (n=6, for all treatment experiments). Mice were culled when required as determined by a scoring system or culled at the pre-determined 24 h time point. All mice, including outliers were included in the statistical analysis. Experiments were either carried out once only or repeated once (defined for each experiment).
as §1

P8AP41T [3] = test: Mouse model of acute lung infection, AP41 tolerant strain P8AP41T; format: in vivo, Pseudomonas aeruginosa; details: 3 mg ml^−1 1 h post-infection
Method: as §1
(§3) In order to determine if pyocin tolerance or resistance was acquired upon pyocin treatment in vivo, viable bacteria recovered from mice that survived infection to the 24 h end-point, in all experiments discussed in this work, were tested for pyocin susceptibility. From these experiments no pyocin resistant colonies were isolated. […] Importantly, sensitivity to pyocins S5 and L1 were unaffected in vitro in this pyocin AP41-tolerant strain (FIG. 3a) and this was also shown to be the case in vivo when mice were infected with P8AP41T.

P. aeruginosa P8 [4] = test: Repeated pyocin exposure followed by P. aeruginosa P8 lung infection and pyocin S5 treatment; format: in vivo, Pseudomonas aeruginosa; details: for survival: infected at thirteen weeks, 75 μg intranasal 1 h post-infection
Method: Repeated pyocin exposure. Pyocin S5 or PBS was given three times, two weeks apart with administration either via intranasal route (referred to as I.N. groups) or intraperitoneal route (referred to as I.P. groups). For I.N. administration the groups were: PBS and pyocin S5 (75 μg; 25 μl at 3 mg ml^−1). For I.P. administration the group was pyocin S5 (75 μg; 100 μl at 750 μg ml^−1). The PBS I.N. group served as the control group for the I.P. group. Thirteen weeks after the first exposure mice (n=5) were infected intranasally with P. aeruginosa P8 (I.N group infected with 1.4×10^7 CFU, I.P group infected with 5.0×10^6 CFU) and treated intranasally one hour post-infection with 75 μg of pyocin S5 or PBS, as described previously.
To ascertain if repeated exposure to pyocins gives rise to an antibody response that is detrimental to treatment, mice were repeatedly exposed to pyocin S5 to induce an antibody response and the efficacy of pyocin treatment was determined as before after infection with P. aeruginosa P8. Pyocin S5 was administered three times, with two weeks between each administration, either via the intranasal route (I.N.) or the intraperitoneal (I.P.) route. Thirteen weeks after the first treatment, mice (n=5) were infected intranasally with P. aeruginosa P8 (I.N. group infected with 1.4×10^7 CFU, I.P. group infected with 5.0×10^6 CFU) and treated intranasally 1 h post-infection with 75 μg of pyocin S5 or PBS. A control group administered only PBS intranasally prior to infection was also included. […] The levels of pyocin-S5 specific IgG and IgA were analysed for each mouse.

P8AP41T [5] = test: Pyocin sensitivity in vitro (spot tests) of strain P8AP41T; format: cell-based, Pseudomonas aeruginosa; details: spot tests, FIG. 3a
Method: Pyocin sensitivity assays: overlay spot plate method. Soft agar overlay spot plates were performed using the method of ^35. 150 μl of test strain culture at OD600 nm=0.6 was added to 6 ml of 0.8% soft agar and poured over an LB agar plate. 5 μl of bacteriocin, lung homogenate or blood at varying concentrations was spotted onto the plates and incubated for 24 h at 37° C.
as §3

[6] = test system: P. aeruginosa P5 (mucoid); test: Mouse model of acute lung infection, P. aeruginosa P5; format: in vivo, Pseudomonas aeruginosa
Method: as §1, §2

[7] = survival to 24 h, treatment 1 h post-infection

B1: Pyocin S5: S-type pyocin, SEQ ID NO: 13; binds FptA, pore-forming effector (protein, listed as Pseudomonas aeruginosa)
chain: MSNDNEVPGSMVIVAQGPDDQYAYEVPPIDSAAVAGNMFGDLIQREIYLQKNIYYPVRSIFEQGTKEKKEINKKVSDQVDGLLKQITQGKREATRQERVDVMSAVLHKMESDLEGYKKTFTKGPFIDYEKQSSLSIYEAWVKIWEKNSWEERKKYPFQQLVRDELERAVAYYKQDSLSEAVKVLRQELNKQKALKEKEDLSQLERDYRTRKANLEMKVQSELDQAGSALPPLVSPTPEQWLERATRLVTQAIADKKQLQTTNNTLIKNSPTPLEKQKAIYNGELLVDEIASLQARLVKLNAETTRRRTEAERKAAEEQALQDAIKFTADFYKEVTEKFGARTSEMARQLAEGARGKNIRSSAEAIKSFEKHKDALNKKLSLKDRQAIAKAFDSLDKQMMAKSLEKFSKGFGVVGKAIDAASLYQEFKISTETGDWKPFFVKIETLAAGAAASWLVGIAFATATATPIGILGFALVMAVTGAMIDEDLLEKANNLVISI
survival / protection (P. aeruginosa P17; pyocin 3 mg ml^−1, endpoint 24 h, infected controls culled at 4 h): survived until the 24 h endpoint
bacterial count in lung, P17 (P. aeruginosa P17; pyocin 3 mg ml^−1, treated mice survived to 24 h, no treatment 4.4 × 10^5 CFU/lung): No colonies
strains against which active [1]: 87%
survival (P. aeruginosa P8 [2]; 30 ng ml^−1, 1 h post-infection (FIG. 2b)): survived to 24 h
bacterial counts compared to the PBS controls (P. aeruginosa P8 [2]; 30 ng ml^−1, 24 h post-infection (FIG. 2b)): significantly reduced the bacterial counts
bacteria recovered from lung (P. aeruginosa P8 [2]; 3 mg ml^−1 1 h post-infection, 24 h post-infection, six mice (FIG. 1d)): no bacteria recovered; also recorded: No colonies were recovered
treated mice from which viable bacteria were recovered (P. aeruginosa P8 [2]; 3 mg ml^−1 intranasal 1 h post-infection, culled 4.5 h post-infection (FIG. 1c)): three out of six
viable bacteria recovered from lung (P. aeruginosa P8 [2]; 3 mg ml^−1 intranasal 6 h pre-infection, 24 h post-infection (FIG. 1b)): no viable bacteria were recovered; also recorded: No colonies were recovered
viable bacteria recovered from lung homogenates (P. aeruginosa P8 [2]; C57/BL6 mice, 3 mg ml^−1 intranasal 6 h pre-infection, culled 4 h post-infection (FIG. 1a)): no viable bacteria were recovered; also recorded: No colonies were recovered
concentration at which effective in this model (P. aeruginosa P8 [2]; in vivo): lower than 1 nM
Lowest active concentration tested (P. aeruginosa P8 [2]; lowest concentration tested with which the treated mice survived to 24 h): 30 ng/mL
potency relative to tobramycin (P. aeruginosa P8 [2]; minimum effective concentrations compared): at least 100 fold
Corresponding molarity (P. aeruginosa P8 [2]; molarity of lowest active concentration tested): 535 pM
bacterial load compared with tobramycin (P. aeruginosa P8 [2]; pyocin S5 0.3 or 3 mg ml^−1 versus tobramycin 30 or 3 mg ml^−1, 1 h post-infection, culled 4.5 h (FIG. 2a)): reduced the bacterial load to a greater extent than tobramycin
bacterial counts compared with tobramycin (P. aeruginosa P8 [2]; repeat of FIG. 2a experiment (FIG. 6)): reduced bacterial counts to a greater extent than tobramycin
lowest concentration at which effective (lower limit) (P. aeruginosa P8 [2]; [7]): > 300 pg/mL
lowest concentration at which effective (upper limit) (P. aeruginosa P8 [2]; [7]): ≤ 30 ng/mL
bacterial numbers in lung homogenates (P8AP41T [3]; 24 h (FIG. 3b)): significantly reduced bacterial numbers; also recorded: No colonies were recovered
survival (P8AP41T [3]; endpoint 24 h, PBS controls culled 6 h post-infection (FIG. 3b)): survived until the endpoint of the experiment at 24 h
survival (P. aeruginosa P8 [4]; I.N. pre-exposure 75 μg three times two weeks apart): survived to the 24 h time-point
bacterial load of the lungs (P. aeruginosa P8 [4]; I.N. pre-exposure 75 μg three times, 75 μg intranasal 1 h post-infection (FIG. 8a)): no viable bacteria were recovered
survival (P. aeruginosa P8 [4]; I.P. pre-exposure 75 μg three times two weeks apart): all survived to the 24 h time-point
bacterial load of the lungs (P. aeruginosa P8 [4]; I.P. pre-exposure 75 μg three times, 75 μg intranasal 1 h post-infection (FIG. 8c)): no viable bacteria were recovered
sensitivity of the pyocin AP41-tolerant strain in vitro (P8AP41T [5]): unaffected
survival / protection ([6]; pyocin 3 mg ml^−1, endpoint 24 h, infected controls culled at 4.5 h): survived until the 24 h endpoint
bacterial count in lung, P5 ([6]; pyocin 3 mg ml^−1, treated mice survived to 24 h, no treatment 1.7 × 10^5 CFU/lung): No colonies
